Results taken from US20190086411A1 (ROCHE SEQUENCING SOLUTIONS, published 2019).

Target: T1, human prostate specific antigen (PSA) labelled with biotin (human, UniProt P07288 25-261, labelled with biotin using EZ-Link NHS-PEG4-biotinylation kit)
T1 construct: Applied in solution at 100 ng/ml to the peptide arrays and detected with Streptavidin Cy5
Experiment: Extension Array (160,000 members, 5 replicates), biotin-PSA, Streptavidin Cy5 detection
Procedure: (§1) Binding Assay: PSA labelled with biotin using EZ-Link NHS-PEG4-biotinylation kit (Thermo Fisher Sci., Inc. Rockford, Ill.) was incubated in SecureSeal hybridization chamber (Grace Bio-Labs, Bend, Oreg.) at concentration 100 ng/ml in 1×TE binding buffer with 1% alkali soluble casein at 25° C. for 12 hrs. Array was washed 3× with 1×TE buffer and stained with Streptavidin Cy5 in 1× binding buffer with 1% alkali soluble casein at 25 C for 1 hr, and washed 3× with 1×TE buffer and finally with 0.1×TE buffer and scanned using a 2 micrometer MS200 scanner (Roche/Nimblegen, Madison, Wis.).
Two dominant F[QET]VY[LI] and W[QET]V[YH][LAV] clusters described above were related by having similar amino acids F or W at position 1 and V at position 3. To find other possible binder motifs we excluded sequences with these features from the 5-mer Array data and performed PEPLIB analysis with top 32 sequences from the remaining dataset as shown in FIG. 11. […] Four sequences, FEVYL (SEQ ID NO: 1), WTVYA (SEQ ID NO: 2), WEVHL (SEQ ID NO: 3), and RSILY (SEQ ID NO: 4), selected from the 5-mer Array were extended by all possible dimers at both N- and C-terminus using all 20 natural amino acids (×) to design Extension Arrays each of them consisting of 160,000 members synthesized in 5 replicates (Table 2). Top twelve sequences for each library selected by signal intensity of PSA binding were used to generate Logo plots shown in FIG. 12. […] For example, FEVYL motif (SEQ ID NO: 1) prefers exclusively P at the C-terminus, WTVYA motif (SEQ ID NO: 2) prefers acidic amino acid either D or E at the N-terminus and G at the C-terminus, whereas RSILY motif (SEQ ID NO: 4) prefers C at the C-terminus, an amino acid that was not present in the 5-mer arrays.

T1 sequence (P07288 25-261 limits assumed): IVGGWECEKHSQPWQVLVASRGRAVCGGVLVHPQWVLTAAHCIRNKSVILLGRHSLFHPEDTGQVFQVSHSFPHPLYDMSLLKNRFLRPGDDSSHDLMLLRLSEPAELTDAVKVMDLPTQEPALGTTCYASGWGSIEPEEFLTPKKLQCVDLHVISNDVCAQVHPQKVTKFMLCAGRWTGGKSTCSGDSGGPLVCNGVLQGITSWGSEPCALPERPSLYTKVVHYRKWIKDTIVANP

Row | Molecule | binding result
1 | TGWEVHLGK | binds
2 | NGFEVYLPG | binds
3 | SCRSILYGQ | binds
4 | SEWTVYAGN | binds

Target: human prostate specific antigen (PSA) labelled with biotin (human) (UniProt P07288)
Sequence (P07288 25-261 limits assumed): as above
Experiment: 5-mer peptide microarray, biotin-PSA 100 ng/ml, Streptavidin Cy5 detection

Row | Molecule | rank by binding signal to PSA (among 405 top sequences) [rank] | rank in the list of 405 sequences with the highest average signal intensity [rank]
5 | FEVYL (peptide) | 1 | 
6 | WTVYA (peptide) | 3 | 
7 | RSILY (peptide) |  | 307
8 | WEVHL (peptide) | 28 | 

Target: T1, human prostate specific antigen (PSA) …
Experiment: Double Substitution/Deletion Array, biotin-PSA, Streptavidin Cy5 detection
Procedure: as §1
The top sequences selected from the Extension Array (Table 2, column 3) were used to design Double Substitution/Deletion Arrays as shown in column 4 of Table 2. Single and double substitution scan performed as described in Example 3 were used to optimize PSA binders to achieve highest signal intensity and confirm specificity of each amino acid in motif sequence (Table 2, column 5).

Row | Molecule | binding result
9 | GTGWEVHLGKG | binds
10 | ASEWTVYAGNK | binds
11 | QSCRSILYGDG | binds
12 | GTGFEVYIPGA | binds
